# Measured values as given in publication PMC5704011.
# Where two headings read alike, the source gives them in different places.
# What was measured:
# [1] = target: human recombinant PDGFRβ (human) (UniProt P09619); experiment: SPR; BIAcore 3000, 25 °C, CM5 chip; receptor immobilised by amine coupling (~200-500 R.U.); ligand injected at 10, 20 and 40 nM, 30 uL/min, 10 min dissociation; HBS-EP pH 7.4 (10 mM HEPES, 3 mM EDTA, 150 mM NaCl, 0.005% TWEEN-20); angiopoietin-4 reference cell subtracted; global 1:1 Langmuir fit; χ2-to-Rmax > 1.0 or negative association curves taken as no true interaction
# human recombinant PDGFRβ (human), sequence (P09619 33-1106): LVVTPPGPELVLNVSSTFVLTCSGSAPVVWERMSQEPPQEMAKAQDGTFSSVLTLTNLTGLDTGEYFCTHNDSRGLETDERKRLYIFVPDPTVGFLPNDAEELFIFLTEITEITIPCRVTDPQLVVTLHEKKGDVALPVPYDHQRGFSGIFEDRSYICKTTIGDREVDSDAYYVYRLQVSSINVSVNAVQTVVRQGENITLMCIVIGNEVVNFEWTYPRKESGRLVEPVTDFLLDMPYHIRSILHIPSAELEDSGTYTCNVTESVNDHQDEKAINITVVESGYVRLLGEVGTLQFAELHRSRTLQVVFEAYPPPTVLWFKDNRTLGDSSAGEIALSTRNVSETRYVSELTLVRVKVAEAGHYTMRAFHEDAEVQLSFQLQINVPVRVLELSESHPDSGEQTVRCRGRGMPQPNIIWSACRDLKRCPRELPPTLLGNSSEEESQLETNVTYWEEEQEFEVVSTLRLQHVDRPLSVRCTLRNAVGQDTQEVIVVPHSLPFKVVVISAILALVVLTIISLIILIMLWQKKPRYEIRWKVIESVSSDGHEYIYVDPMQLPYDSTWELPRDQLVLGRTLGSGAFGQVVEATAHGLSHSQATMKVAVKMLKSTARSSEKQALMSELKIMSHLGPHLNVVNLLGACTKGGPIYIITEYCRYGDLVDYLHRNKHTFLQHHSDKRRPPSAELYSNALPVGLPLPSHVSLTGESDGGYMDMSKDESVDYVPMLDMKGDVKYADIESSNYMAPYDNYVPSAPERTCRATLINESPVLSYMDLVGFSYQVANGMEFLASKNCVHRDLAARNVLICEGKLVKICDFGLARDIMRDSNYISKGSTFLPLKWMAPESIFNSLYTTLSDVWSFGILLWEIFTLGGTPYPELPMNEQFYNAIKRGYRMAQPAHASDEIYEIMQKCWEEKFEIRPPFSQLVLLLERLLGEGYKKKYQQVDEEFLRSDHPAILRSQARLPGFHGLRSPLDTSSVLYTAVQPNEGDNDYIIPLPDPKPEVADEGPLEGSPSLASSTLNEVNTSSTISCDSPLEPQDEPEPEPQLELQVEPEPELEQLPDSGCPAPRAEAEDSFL
# VEGFR2 (Homo sapiens) [2] = target: VEGFR2 (Homo sapiens) (UniProt P35968); experiment: as above
# Target sequence in this assay (P35968 20-764): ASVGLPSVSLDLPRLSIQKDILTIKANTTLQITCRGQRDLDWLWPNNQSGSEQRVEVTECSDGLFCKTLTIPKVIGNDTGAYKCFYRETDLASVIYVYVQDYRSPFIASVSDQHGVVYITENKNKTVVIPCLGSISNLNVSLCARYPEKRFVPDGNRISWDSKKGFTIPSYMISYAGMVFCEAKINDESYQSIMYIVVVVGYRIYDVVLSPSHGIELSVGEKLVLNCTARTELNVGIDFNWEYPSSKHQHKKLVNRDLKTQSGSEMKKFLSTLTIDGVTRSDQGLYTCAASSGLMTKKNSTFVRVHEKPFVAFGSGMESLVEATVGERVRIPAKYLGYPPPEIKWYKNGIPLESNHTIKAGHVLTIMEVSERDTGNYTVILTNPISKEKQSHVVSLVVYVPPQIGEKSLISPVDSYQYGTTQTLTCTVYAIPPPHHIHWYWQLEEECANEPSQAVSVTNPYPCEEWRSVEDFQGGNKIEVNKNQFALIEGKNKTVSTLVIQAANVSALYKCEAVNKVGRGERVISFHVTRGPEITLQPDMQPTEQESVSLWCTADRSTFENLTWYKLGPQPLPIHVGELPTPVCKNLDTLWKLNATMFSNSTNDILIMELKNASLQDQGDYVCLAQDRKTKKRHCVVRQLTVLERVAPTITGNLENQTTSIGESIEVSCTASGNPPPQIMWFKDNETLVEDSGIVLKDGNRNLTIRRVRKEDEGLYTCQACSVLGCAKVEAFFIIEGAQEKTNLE
# VEGFR1 (Homo sapiens) [3] = target: VEGFR1 (Homo sapiens) (UniProt P17948); experiment: as above
# Target sequence in this assay (P17948 27-758): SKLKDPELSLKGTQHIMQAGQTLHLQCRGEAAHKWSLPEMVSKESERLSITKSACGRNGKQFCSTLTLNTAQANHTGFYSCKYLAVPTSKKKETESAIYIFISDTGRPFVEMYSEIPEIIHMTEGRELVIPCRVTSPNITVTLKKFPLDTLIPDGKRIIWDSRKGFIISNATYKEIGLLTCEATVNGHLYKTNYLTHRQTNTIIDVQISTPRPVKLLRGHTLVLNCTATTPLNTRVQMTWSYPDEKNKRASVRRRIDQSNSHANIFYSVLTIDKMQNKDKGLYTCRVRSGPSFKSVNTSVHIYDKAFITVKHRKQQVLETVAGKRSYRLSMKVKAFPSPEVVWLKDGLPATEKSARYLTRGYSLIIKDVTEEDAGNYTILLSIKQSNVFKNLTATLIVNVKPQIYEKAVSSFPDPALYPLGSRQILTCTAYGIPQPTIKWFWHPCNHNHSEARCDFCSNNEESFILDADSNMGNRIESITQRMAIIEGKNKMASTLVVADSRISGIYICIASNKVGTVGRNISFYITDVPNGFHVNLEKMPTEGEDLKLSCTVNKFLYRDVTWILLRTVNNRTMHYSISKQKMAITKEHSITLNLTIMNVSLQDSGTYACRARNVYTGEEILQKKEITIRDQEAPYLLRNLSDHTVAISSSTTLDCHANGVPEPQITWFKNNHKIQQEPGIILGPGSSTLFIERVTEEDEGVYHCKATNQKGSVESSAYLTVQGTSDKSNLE
# VEGFR2 (Homo sapiens) [4] = target: VEGFR2 (Homo sapiens) (UniProt P35968); experiment: SPR; BIAcore 3000, 25 °C, CM5 chip; receptor immobilised by amine coupling (~200-500 R.U.); ligand injected at 40, 20 and 10 nM in HBS-EP pH 7.4 (10 mM HEPES, 3 mM EDTA, 150 mM NaCl, 0.005% TWEEN-20); angiopoietin-4 reference cell subtracted; global 1:1 Langmuir fit; χ^2-to-Rmax < 1.0 taken as a true interaction
# Target sequence in this assay (P35968 20-764): as the sequence (P35968 20-764) above
# VEGFR1 (Homo sapiens) [5] = target: VEGFR1 (Homo sapiens) (UniProt P17948); experiment: as above
# Target sequence in this assay (P17948 27-758): as the sequence (P17948 27-758) above
# PDGFRα (Homo sapiens) [6] = target: PDGFRα (Homo sapiens) (UniProt P16234); experiment: SPR; BIAcore 3000, 25 °C, CM5 chip; receptor immobilised by amine coupling (~200-500 R.U.); ligand injected at 10, 20 and 40 nM, 30 uL/min, 10 min dissociation; HBS-EP pH 7.4 (10 mM HEPES, 3 mM EDTA, 150 mM NaCl, 0.005% TWEEN-20); angiopoietin-4 reference cell subtracted; global 1:1 Langmuir fit; χ2-to-Rmax > 1.0 or negative association curves taken as no true interaction
# Target sequence in this assay (P16234 24-1089): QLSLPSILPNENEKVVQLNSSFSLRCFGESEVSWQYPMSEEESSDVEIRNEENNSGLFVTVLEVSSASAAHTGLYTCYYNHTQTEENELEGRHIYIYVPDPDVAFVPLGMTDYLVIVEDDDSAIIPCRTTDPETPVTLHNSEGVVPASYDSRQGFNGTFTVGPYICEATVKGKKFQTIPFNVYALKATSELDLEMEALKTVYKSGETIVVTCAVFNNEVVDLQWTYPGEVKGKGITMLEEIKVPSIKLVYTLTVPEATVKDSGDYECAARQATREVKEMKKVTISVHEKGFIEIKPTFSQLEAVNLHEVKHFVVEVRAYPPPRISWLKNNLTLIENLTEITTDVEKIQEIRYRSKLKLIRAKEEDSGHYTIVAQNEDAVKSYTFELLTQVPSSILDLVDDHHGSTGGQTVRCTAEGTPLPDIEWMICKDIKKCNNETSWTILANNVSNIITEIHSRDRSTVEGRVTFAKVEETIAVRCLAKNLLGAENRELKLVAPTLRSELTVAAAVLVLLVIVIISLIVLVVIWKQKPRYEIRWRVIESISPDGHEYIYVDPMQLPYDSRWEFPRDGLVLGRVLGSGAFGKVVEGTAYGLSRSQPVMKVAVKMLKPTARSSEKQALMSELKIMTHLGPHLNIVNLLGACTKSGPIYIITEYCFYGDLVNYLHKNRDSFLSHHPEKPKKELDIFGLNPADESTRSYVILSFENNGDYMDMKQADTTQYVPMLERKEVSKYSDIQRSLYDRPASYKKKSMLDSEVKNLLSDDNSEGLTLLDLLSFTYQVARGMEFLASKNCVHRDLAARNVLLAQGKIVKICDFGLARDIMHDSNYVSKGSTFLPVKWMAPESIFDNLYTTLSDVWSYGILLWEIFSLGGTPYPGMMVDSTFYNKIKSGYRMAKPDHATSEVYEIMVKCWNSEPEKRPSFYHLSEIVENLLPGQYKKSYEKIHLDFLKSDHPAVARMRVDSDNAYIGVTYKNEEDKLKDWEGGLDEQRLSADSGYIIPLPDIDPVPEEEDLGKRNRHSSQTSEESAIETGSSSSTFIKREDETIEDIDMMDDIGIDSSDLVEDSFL
# PDGFRα (Homo sapiens) [7] = target: PDGFRα (Homo sapiens) (UniProt P16234); settings: cited from earlier work
# Target sequence in this assay (P16234 24-528): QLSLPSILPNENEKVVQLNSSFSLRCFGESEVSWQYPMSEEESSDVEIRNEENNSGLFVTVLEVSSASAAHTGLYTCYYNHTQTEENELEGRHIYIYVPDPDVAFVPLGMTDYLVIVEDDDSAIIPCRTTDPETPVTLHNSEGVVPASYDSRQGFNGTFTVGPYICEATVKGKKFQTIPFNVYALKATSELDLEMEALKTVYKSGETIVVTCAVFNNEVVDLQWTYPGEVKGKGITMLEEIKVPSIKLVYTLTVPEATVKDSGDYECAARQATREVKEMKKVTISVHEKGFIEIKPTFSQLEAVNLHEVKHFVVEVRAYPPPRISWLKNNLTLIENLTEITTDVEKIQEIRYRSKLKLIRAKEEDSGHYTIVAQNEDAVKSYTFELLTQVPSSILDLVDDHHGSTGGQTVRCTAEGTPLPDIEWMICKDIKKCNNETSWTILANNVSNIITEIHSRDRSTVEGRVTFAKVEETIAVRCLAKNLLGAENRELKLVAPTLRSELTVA
# PDGFRα (Homo sapiens) [8] = target: PDGFRα (Homo sapiens) (UniProt P16234); settings: cited from earlier work; remark: listed apart in the source
# Target sequence in this assay (P16234 24-528): as above
# VEGFR2 (Homo sapiens) [9] = target: VEGFR2 (Homo sapiens) (UniProt P35968); experiment: SPR; settings: cited from earlier work
# VEGFR1 (Homo sapiens) [10] = target: VEGFR1 (Homo sapiens) (UniProt P17948); experiment: SPR; settings: cited from earlier work
# VEGF-A, sequence (P15692 whole entry): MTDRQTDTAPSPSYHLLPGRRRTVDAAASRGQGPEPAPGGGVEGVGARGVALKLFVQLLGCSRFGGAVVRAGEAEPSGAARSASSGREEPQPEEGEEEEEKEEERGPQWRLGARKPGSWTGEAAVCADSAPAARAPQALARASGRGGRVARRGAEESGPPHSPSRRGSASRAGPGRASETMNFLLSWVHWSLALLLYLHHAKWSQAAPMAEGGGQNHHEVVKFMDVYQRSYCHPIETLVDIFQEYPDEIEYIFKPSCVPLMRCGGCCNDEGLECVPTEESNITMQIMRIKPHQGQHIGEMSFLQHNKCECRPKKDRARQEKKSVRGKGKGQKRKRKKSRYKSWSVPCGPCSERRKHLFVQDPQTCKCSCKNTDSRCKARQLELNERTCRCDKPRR
substance,measurement,setting,value
human recombinant VEGFA (from UniProt P15692 1-395) (ligand),koff,[1],4e-06 s⁻¹
same,kon,[1],12000 M⁻¹ s⁻¹
same,koff,VEGFR2 (Homo sapiens) [2],9.5e-06 s⁻¹
same,kon,VEGFR2 (Homo sapiens) [2],970000 M⁻¹ s⁻¹
same,koff,VEGFR1 (Homo sapiens) [3],4e-07 s⁻¹
same,kon,VEGFR1 (Homo sapiens) [3],400000 M⁻¹ s⁻¹
same,Kd,VEGFR2 (Homo sapiens) [4],0.0098 nM
same,kon,VEGFR2 (Homo sapiens) [4],1e+06 M⁻¹ s⁻¹
same,Kd,VEGFR1 (Homo sapiens) [5],0.001 nM
human recombinant PDGF-AB (from UniProt P04085 87-211; P01127 82-190) (ligand),koff,[1],0.0029 s⁻¹
same,kon,[1],1300 M⁻¹ s⁻¹
same,koff,PDGFRα (Homo sapiens) [6],0.001 s⁻¹
same,kon,PDGFRα (Homo sapiens) [6],1200 M⁻¹ s⁻¹
human recombinant PDGF-AA (from UniProt P04085 87-211) (ligand),koff,PDGFRα (Homo sapiens) [6],0.00045 s⁻¹
same,kon,PDGFRα (Homo sapiens) [6],680 M⁻¹ s⁻¹
PDGF-BB (from UniProt P01127),Kd,PDGFRα (Homo sapiens) [7],150 nM
PDGF-AA (from UniProt P04085),Kd,PDGFRα (Homo sapiens) [8],134 nM
VEGF-A (from UniProt P15692),Kd,VEGFR2 (Homo sapiens) [9],0.052 nM
same,Kd,VEGFR1 (Homo sapiens) [10],0.0075 nM
